# US20140147444A1 (published 2014)
# T1: human OPGbp [143-317] (human, UniProt O14788 143-317)
# T1 construct: also called OPGL
# T1 sequence (looked up): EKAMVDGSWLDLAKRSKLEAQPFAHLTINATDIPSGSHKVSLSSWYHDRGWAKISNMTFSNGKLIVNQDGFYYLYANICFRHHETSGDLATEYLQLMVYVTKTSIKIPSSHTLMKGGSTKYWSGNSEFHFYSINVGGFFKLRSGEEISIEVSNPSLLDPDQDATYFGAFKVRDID
# Target: T1, human OPGbp [143-317]
# Experiment: SPR (BIAcore), immobilized OPGbp [143-317]
Kd [nM],koff [s⁻¹],kon [M⁻¹ s⁻¹],binding result,Binder
0.67,0.0009,1.3e+06,,"“AT” antibody variant N98A (heavy chain CDR3) (antibody, name in Kabat numbering, V domains shown, not shown: human IgG1 CH1, hinge, CH2 and CH3) VH: QVQLVQSGAEVRKPGASVKVSCKASGYDFSNYAIHWVRQAPGQRLEWMGWINAGNGNTKFSQKFQGRITVTRDTAASTAYMELRSLRSEDTAVYYCARDSSAMVRGIIIAYYFDYWGQGTLVTVSS VL: EIVMTQSPSSLSASVGDRVTITCRASQSISRYLNWYQLKPGKAPRLLIYGASSLQSGVPSRFSGSGSGAEFTLTISSLQPEDIATYYCQHTRAFGQGTKVEIKR"
8.9,0.00284,317000,,"“AT” antibody variant S96A, S97A (heavy chain CDR3) (antibody, name in Kabat numbering, V domains shown, not shown: human IgG1 CH1, hinge, CH2 and CH3) VH: QVQLVQSGAEVRKPGASVKVSCKASGYDFSNYAIHWVRQAPGQRLEWMGWINAGNGNTKFSQKFQGRITVTRDTAASTAYMELRSLRSEDTAVYYCARDAANMVRGIIIAYYFDYWGQGTLVTVSS VL: EIVMTQSPSSLSASVGDRVTITCRASQSISRYLNWYQLKPGKAPRLLIYGASSLQSGVPSRFSGSGSGAEFTLTISSLQPEDIATYYCQHTRAFGQGTKVEIKR"
2.5,0.00064,260000,,"“AT” antibody variant S96A (heavy chain CDR3) (antibody, name in Kabat numbering, V domains shown, not shown: human IgG1 CH1, hinge, CH2 and CH3) VH: QVQLVQSGAEVRKPGASVKVSCKASGYDFSNYAIHWVRQAPGQRLEWMGWINAGNGNTKFSQKFQGRITVTRDTAASTAYMELRSLRSEDTAVYYCARDASNMVRGIIIAYYFDYWGQGTLVTVSS VL: EIVMTQSPSSLSASVGDRVTITCRASQSISRYLNWYQLKPGKAPRLLIYGASSLQSGVPSRFSGSGSGAEFTLTISSLQPEDIATYYCQHTRAFGQGTKVEIKR"
,,,no binding,"“AT” antibody variant S96A, N98A (heavy chain CDR3) (antibody, name in Kabat numbering, V domains shown, not shown: human IgG1 CH1, hinge, CH2 and CH3) VH: QVQLVQSGAEVRKPGASVKVSCKASGYDFSNYAIHWVRQAPGQRLEWMGWINAGNGNTKFSQKFQGRITVTRDTAASTAYMELRSLRSEDTAVYYCARDASAMVRGIIIAYYFDYWGQGTLVTVSS VL: EIVMTQSPSSLSASVGDRVTITCRASQSISRYLNWYQLKPGKAPRLLIYGASSLQSGVPSRFSGSGSGAEFTLTISSLQPEDIATYYCQHTRAFGQGTKVEIKR"
,,,no binding,"“AT” antibody variant S97A, N98A (heavy chain CDR3) (antibody, name in Kabat numbering, V domains shown, not shown: human IgG1 CH1, hinge, CH2 and CH3) VH: QVQLVQSGAEVRKPGASVKVSCKASGYDFSNYAIHWVRQAPGQRLEWMGWINAGNGNTKFSQKFQGRITVTRDTAASTAYMELRSLRSEDTAVYYCARDSAAMVRGIIIAYYFDYWGQGTLVTVSS VL: EIVMTQSPSSLSASVGDRVTITCRASQSISRYLNWYQLKPGKAPRLLIYGASSLQSGVPSRFSGSGSGAEFTLTISSLQPEDIATYYCQHTRAFGQGTKVEIKR"
,,,no binding,"“AT” antibody variant S96A, S97A, N98A (heavy chain CDR3) (antibody, name in Kabat numbering, V domains shown, not shown: human IgG1 CH1, hinge, CH2 and CH3) VH: QVQLVQSGAEVRKPGASVKVSCKASGYDFSNYAIHWVRQAPGQRLEWMGWINAGNGNTKFSQKFQGRITVTRDTAASTAYMELRSLRSEDTAVYYCARDAAAMVRGIIIAYYFDYWGQGTLVTVSS VL: EIVMTQSPSSLSASVGDRVTITCRASQSISRYLNWYQLKPGKAPRLLIYGASSLQSGVPSRFSGSGSGAEFTLTISSLQPEDIATYYCQHTRAFGQGTKVEIKR"
2.9,0.0015,530000,,"“AT” antibody variant S97A (heavy chain CDR3) (antibody, name in Kabat numbering, V domains shown, not shown: human IgG1 CH1, hinge, CH2 and CH3) VH: QVQLVQSGAEVRKPGASVKVSCKASGYDFSNYAIHWVRQAPGQRLEWMGWINAGNGNTKFSQKFQGRITVTRDTAASTAYMELRSLRSEDTAVYYCARDSANMVRGIIIAYYFDYWGQGTLVTVSS VL: EIVMTQSPSSLSASVGDRVTITCRASQSISRYLNWYQLKPGKAPRLLIYGASSLQSGVPSRFSGSGSGAEFTLTISSLQPEDIATYYCQHTRAFGQGTKVEIKR"

# Target: T1, human OPGbp [143-317]
# Experiment: SPR (BIAcore), immobilized OPGbp [143-317]
# Remark: another data set of the same source
Binder,Kd [nM],koff [s⁻¹],kon [M⁻¹ s⁻¹],binding result
"“AT” antibody variant S97W (heavy chain CDR3) (antibody, name in Kabat numbering, V domains shown, not shown: human IgG1 CH1, hinge, CH2 and CH3) VH: QVQLVQSGAEVRKPGASVKVSCKASGYDFSNYAIHWVRQAPGQRLEWMGWINAGNGNTKFSQKFQGRITVTRDTAASTAYMELRSLRSEDTAVYYCARDSWNMVRGIIIAYYFDYWGQGTLVTVSS VL: EIVMTQSPSSLSASVGDRVTITCRASQSISRYLNWYQLKPGKAPRLLIYGASSLQSGVPSRFSGSGSGAEFTLTISSLQPEDIATYYCQHTRAFGQGTKVEIKR",,,,no binding
"“AT” antibody variant S97Y (heavy chain CDR3) (antibody, name in Kabat numbering, V domains shown, not shown: human IgG1 CH1, hinge, CH2 and CH3) VH: QVQLVQSGAEVRKPGASVKVSCKASGYDFSNYAIHWVRQAPGQRLEWMGWINAGNGNTKFSQKFQGRITVTRDTAASTAYMELRSLRSEDTAVYYCARDSYNMVRGIIIAYYFDYWGQGTLVTVSS VL: EIVMTQSPSSLSASVGDRVTITCRASQSISRYLNWYQLKPGKAPRLLIYGASSLQSGVPSRFSGSGSGAEFTLTISSLQPEDIATYYCQHTRAFGQGTKVEIKR",,,,no binding

# The next lines start with the values.
Kd [nM],koff [s⁻¹],kon [M⁻¹ s⁻¹],binding result,Binder
28.9,0.118,4.09e+06,,"“AT” antibody variant S97R (heavy chain CDR3) (antibody, name in Kabat numbering, V domains shown, not shown: human IgG1 CH1, hinge, CH2 and CH3) VH: QVQLVQSGAEVRKPGASVKVSCKASGYDFSNYAIHWVRQAPGQRLEWMGWINAGNGNTKFSQKFQGRITVTRDTAASTAYMELRSLRSEDTAVYYCARDSRNMVRGIIIAYYFDYWGQGTLVTVSS VL: EIVMTQSPSSLSASVGDRVTITCRASQSISRYLNWYQLKPGKAPRLLIYGASSLQSGVPSRFSGSGSGAEFTLTISSLQPEDIATYYCQHTRAFGQGTKVEIKR"
4.59,0.00411,895000,,"“AT” antibody variant S97N (heavy chain CDR3) (antibody, name in Kabat numbering, V domains shown, not shown: human IgG1 CH1, hinge, CH2 and CH3) VH: QVQLVQSGAEVRKPGASVKVSCKASGYDFSNYAIHWVRQAPGQRLEWMGWINAGNGNTKFSQKFQGRITVTRDTAASTAYMELRSLRSEDTAVYYCARDSNNMVRGIIIAYYFDYWGQGTLVTVSS VL: EIVMTQSPSSLSASVGDRVTITCRASQSISRYLNWYQLKPGKAPRLLIYGASSLQSGVPSRFSGSGSGAEFTLTISSLQPEDIATYYCQHTRAFGQGTKVEIKR"
0.92,0.00069,750000,,"“AT” antibody variant S97L (heavy chain CDR3) (antibody, name in Kabat numbering, V domains shown, not shown: human IgG1 CH1, hinge, CH2 and CH3) VH: QVQLVQSGAEVRKPGASVKVSCKASGYDFSNYAIHWVRQAPGQRLEWMGWINAGNGNTKFSQKFQGRITVTRDTAASTAYMELRSLRSEDTAVYYCARDSLNMVRGIIIAYYFDYWGQGTLVTVSS VL: EIVMTQSPSSLSASVGDRVTITCRASQSISRYLNWYQLKPGKAPRLLIYGASSLQSGVPSRFSGSGSGAEFTLTISSLQPEDIATYYCQHTRAFGQGTKVEIKR"
0.87,0.0018,2.1e+06,,"“AT” antibody variant S97I (heavy chain CDR3) (antibody, name in Kabat numbering, V domains shown, not shown: human IgG1 CH1, hinge, CH2 and CH3) VH: QVQLVQSGAEVRKPGASVKVSCKASGYDFSNYAIHWVRQAPGQRLEWMGWINAGNGNTKFSQKFQGRITVTRDTAASTAYMELRSLRSEDTAVYYCARDSINMVRGIIIAYYFDYWGQGTLVTVSS VL: EIVMTQSPSSLSASVGDRVTITCRASQSISRYLNWYQLKPGKAPRLLIYGASSLQSGVPSRFSGSGSGAEFTLTISSLQPEDIATYYCQHTRAFGQGTKVEIKR"
1.18,0.00358,3.04e+06,,"“AT” antibody variant S97V (heavy chain CDR3) (antibody, name in Kabat numbering, V domains shown, not shown: human IgG1 CH1, hinge, CH2 and CH3) VH: QVQLVQSGAEVRKPGASVKVSCKASGYDFSNYAIHWVRQAPGQRLEWMGWINAGNGNTKFSQKFQGRITVTRDTAASTAYMELRSLRSEDTAVYYCARDSVNMVRGIIIAYYFDYWGQGTLVTVSS VL: EIVMTQSPSSLSASVGDRVTITCRASQSISRYLNWYQLKPGKAPRLLIYGASSLQSGVPSRFSGSGSGAEFTLTISSLQPEDIATYYCQHTRAFGQGTKVEIKR"
2.51,0.00116,463000,,"“AT” antibody variant S97T (heavy chain CDR3) (antibody, name in Kabat numbering, V domains shown, not shown: human IgG1 CH1, hinge, CH2 and CH3) VH: QVQLVQSGAEVRKPGASVKVSCKASGYDFSNYAIHWVRQAPGQRLEWMGWINAGNGNTKFSQKFQGRITVTRDTAASTAYMELRSLRSEDTAVYYCARDSTNMVRGIIIAYYFDYWGQGTLVTVSS VL: EIVMTQSPSSLSASVGDRVTITCRASQSISRYLNWYQLKPGKAPRLLIYGASSLQSGVPSRFSGSGSGAEFTLTISSLQPEDIATYYCQHTRAFGQGTKVEIKR"
12.4,0.029,2.33e+06,,"“AT” antibody variant S97M (heavy chain CDR3) (antibody, name in Kabat numbering, V domains shown, not shown: human IgG1 CH1, hinge, CH2 and CH3) VH: QVQLVQSGAEVRKPGASVKVSCKASGYDFSNYAIHWVRQAPGQRLEWMGWINAGNGNTKFSQKFQGRITVTRDTAASTAYMELRSLRSEDTAVYYCARDSMNMVRGIIIAYYFDYWGQGTLVTVSS VL: EIVMTQSPSSLSASVGDRVTITCRASQSISRYLNWYQLKPGKAPRLLIYGASSLQSGVPSRFSGSGSGAEFTLTISSLQPEDIATYYCQHTRAFGQGTKVEIKR"
0.4,0.00578,1.45e+07,,"“AT” antibody variant S97K (heavy chain CDR3) (antibody, name in Kabat numbering, V domains shown, not shown: human IgG1 CH1, hinge, CH2 and CH3) VH: QVQLVQSGAEVRKPGASVKVSCKASGYDFSNYAIHWVRQAPGQRLEWMGWINAGNGNTKFSQKFQGRITVTRDTAASTAYMELRSLRSEDTAVYYCARDSKNMVRGIIIAYYFDYWGQGTLVTVSS VL: EIVMTQSPSSLSASVGDRVTITCRASQSISRYLNWYQLKPGKAPRLLIYGASSLQSGVPSRFSGSGSGAEFTLTISSLQPEDIATYYCQHTRAFGQGTKVEIKR"
8.19,0.00598,730000,,"“AT” antibody variant S97Q (heavy chain CDR3) (antibody, name in Kabat numbering, V domains shown, not shown: human IgG1 CH1, hinge, CH2 and CH3) VH: QVQLVQSGAEVRKPGASVKVSCKASGYDFSNYAIHWVRQAPGQRLEWMGWINAGNGNTKFSQKFQGRITVTRDTAASTAYMELRSLRSEDTAVYYCARDSQNMVRGIIIAYYFDYWGQGTLVTVSS VL: EIVMTQSPSSLSASVGDRVTITCRASQSISRYLNWYQLKPGKAPRLLIYGASSLQSGVPSRFSGSGSGAEFTLTISSLQPEDIATYYCQHTRAFGQGTKVEIKR"
24.5,0.0269,1.1e+06,,"“AT” antibody variant S97P (heavy chain CDR3) (antibody, name in Kabat numbering, V domains shown, not shown: human IgG1 CH1, hinge, CH2 and CH3) VH: QVQLVQSGAEVRKPGASVKVSCKASGYDFSNYAIHWVRQAPGQRLEWMGWINAGNGNTKFSQKFQGRITVTRDTAASTAYMELRSLRSEDTAVYYCARDSPNMVRGIIIAYYFDYWGQGTLVTVSS VL: EIVMTQSPSSLSASVGDRVTITCRASQSISRYLNWYQLKPGKAPRLLIYGASSLQSGVPSRFSGSGSGAEFTLTISSLQPEDIATYYCQHTRAFGQGTKVEIKR"
